{"source": "paper PMC9280192", "target": "IRSp53 (insulin receptor substrate protein 53), full-length", "assay": "SEC-MALS"}
{"substance": "IRSp53 (insulin receptor substrate protein 53), full-length (natural protein)", "values": [{"measurement": "stoichiometry N", "result": 2}]}
